Experimental data: article PMC9486875

Biological target: T1, GST-Mei2 RRM1-RRM2 (Schizosaccharomyces pombe, UniProt P08965 191-373)
T1 sequence: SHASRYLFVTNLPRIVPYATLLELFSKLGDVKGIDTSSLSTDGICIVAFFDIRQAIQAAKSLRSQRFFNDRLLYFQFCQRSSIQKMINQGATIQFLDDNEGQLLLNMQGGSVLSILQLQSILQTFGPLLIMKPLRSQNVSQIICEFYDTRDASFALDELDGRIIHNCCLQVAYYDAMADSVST
Experiment: EMSA

B1: meiRNA 20mer (ssRNA)
RNA: GUCAAUCUUCUGCCGUCUUG
B1: no binding.
